What was measured:
HeLa Kyoto [1] = assay: solubility in G1/S (NP-40 vs SDS abundance) (log2 ratio); higher = more soluble; settings: cell cycle stage: G1/S
HeLa Kyoto [2] = assay: melting temperature (median over replicates), in situ; higher = more thermally stable
HeLa Kyoto [3] = assay: solubility change mitosis vs G1/S (difference of NP-40 vs SDS log2 ratios) (log2 ratio difference); higher = more soluble in mitosis
HeLa Kyoto [4] = assay: thermal stability score vs G1/S (z-score of summed log2 fold changes over temperatures); higher = more thermally stable than in G1/S
[5] = cell cycle stage: early G1 (4.5 h after nocodazole release)
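For melting temperature (median over replicates), in situ in this document: HeLa Kyoto cells synchronized by double thymidine or nocodazole block, proteins quantified by TMT10plex mass spectrometry, three independent biological replicates.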
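For solubility change mitosis vs G1/S (difference of NP-40 vs SDS log2 ratios) in this document: synchronized HeLa Kyoto cells (double thymidine block for G1/S, nocodazole release for mitosis), protein amounts in NP-40 versus SDS lysates quantified by mass spectrometry, three biological replicates.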
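For solubility in G1/S (NP-40 vs SDS abundance) in this document: HeLa Kyoto cells arrested at G1/S by double thymidine block, proteins quantified by TMT10plex mass spectrometry in mild NP-40 versus SDS extracts, three biological replicates.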
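For thermal stability score vs G1/S (z-score of summed log2 fold changes over temperatures) in this document: synchronized HeLa Kyoto cells, proteins quantified by TMT10plex mass spectrometry, three biological replicates, mitosis taken 0.5 h after nocodazole release, G1/S directly after double thymidine block.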

| Substance | solubility in G1/S (log2) (HeLa Kyoto [1]) | melting temperature (HeLa Kyoto [2]; cell cycle stage: G1/S) | melting temperature (HeLa Kyoto [2]; cell cycle stage: mitosis) | solubility change mitosis (log2) (HeLa Kyoto [3]) | thermal stability score (HeLa Kyoto [4]; [5]) | thermal stability score (HeLa Kyoto [4]; cell cycle stage: mitosis) |
| --- | --- | --- | --- | --- | --- | --- |
| MADLSLLQEDLQEDADGFGVDDYSSESDVIIIPSALDFVSQDEMLTPLGRLDKYAASENIFNRQMVARSLLDTLREVCDDERDCIAVLERISRLADDSEPTVRAELMEQVPHIALFCQENRPSIPYAFSKFLLPIVVRYLADQNNQVRKTSQAALLALLEQELIERFDVETKVCPVLIELTAPDSNDDVKTEAVAIMCKMAPMVGKDITERLILPRFCEMCCDCRMFHVRKVCAANFGDICSVVGQQATEEMLLPRFFQLCSDNVWGVRKACAECFMAVSCATCQEIRRTKLSALFINLISDPSRWVRQAAFQSLGPFISTFANPSSSGQYFKEESKSSEEMSVENKNRTRDQEAPEDVQVRPEDTPSDLSVSNSSVILENTMEDHAAEASGKPLGEISVPLDSSLLCTLSSESHQEAASNENDKKPGNYKSMLRPEVGTTSQDSALLDQELYNSFHFWRTPLPEIDLDIELEQNSGGKPSPEGPEEESEGPVPSSPNITMATRKELEEMIENLEPHIDDPDVKAQVEVLSAALRASSLDAHEETISIEKRSDLQDELDINELPNCKINQEDSVPLISDAVENMDSTLHYIHSDSDLSNNSSFSPDEERRTKVQDVVPQALLDQYLSMTDPSRAQTVDTEIAKHCAYSLPGVALTLGRQNWHCLRETYETLASDMQWKVRRTLAFSIHELAVILGDQLTAADLVPIFNGFLKDLDEVRIGVLKHLHDFLKLLHIDKRREYLYQLQEFLVTDNSRNWRFRAELAEQLILLLELYSPRDVYDYLRPIALNLCADKVSSVRWISYKLVSEMVKKLHAATPPTFGVDLINELVENFGRCPKWSGRQAFVFVCQTVIEDDCLPMDQFAVHLMPHLLTLANDRVPNVRVLLAKTLRQTLLEKDYFLASASCHQEAVEQTIMALQMDRDSDVKYFASIHPASTKISEDAMSTASSTY [PPP4R1] | -0.0857 | 51.6 °C | 50.8 °C | -0.155 | -0.471 | -0.62 |
| MNMTQARVLVAAVVGLVAVLLYASIHKIEEGHLAVYYRGGALLTSPSGPGYHIMLPFITTFRSVQTTLQTDEVKNVPCGTSGGVMIYIDRIEVVNMLAPYAVFDIVRNYTADYDKTLIFNKIHHELNQFCSAHTLQEVYIELFDQIDENLKQALQKDLNLMAPGLTIQAVRVTKPKIPEAIRRNFELMEAEKTKLLIAAQKQKVVEKEAETERKKAVIEAEKIAQVAKIRFQQKVMEKETEKRISEIEDAAFLAREKAKADAEYYAAHKYATSNKHKLTPEYLELKKYQAIASNSKIYFGSNIPNMFVDSSCALKYSDIRTGRESSLPSKEALEPSGENVIQNKESTG [ERLIN1] | 0.24 | 52.7 °C | 53.1 °C | -0.0762 | 1.82 | 4.38 |
| MAGAAGLTAEVSWKVLERRARTKRSGSVYEPLKSINLPRPDNETLWDKLDHYYRIVKSTLLLYQSPTTGLFPTKTCGGDQKAKIQDSLYCAAGAWALALAYRRIDDDKGRTHELEHSAIKCMRGILYCYMRQADKVQQFKQDPRPTTCLHSVFNVHTGDELLSYEEYGHLQINAVSLYLLYLVEMISSGLQIIYNTDEVSFIQNLVFCVERVYRVPDFGVWERGSKYNNGSTELHSSSVGLAKAALEAINGFNLFGNQGCSWSVIFVDLDAHNRNRQTLCSLLPRESRSHNTDAALLPCISYPAFALDDEVLFSQTLDKVVRKLKGKYGFKRFLRDGYRTSLEDPNRCYYKPAEIKLFDGIECEFPIFFLYMMIDGVFRGNPKQVQEYQDLLTPVLHHTTEGYPVVPKYYYVPADFVEYEKNNPGSQKRFPSNCGRDGKLFLWGQALYIIAKLLADELISPKDIDPVQRYVPLKDQRNVSMRFSNQGPLENDLVVHVALIAESQRLQVFLNTYGIQTQTPQQVEPIQIWPQQELVKAYLQLGINEKLGLSGRPDRPIGCLGTSKIYRILGKTVVCYPIIFDLSDFYMSQDVFLLIDDIKNALQFIKQYWKMHGRPLFLVLIREDNIRGSRFNPILDMLAALKKGIIGGVKVHVDRLQTLISGAVVEQLDFLRISDTEELPEFKSFEELEPPKHSKVKRQSSTPSAPELGQQPDVNISEWKDKPTHEILQKLNDCSCLASQAILLGILLKREGPNFITKEGTVSDHIERVYRRAGSQKLWLAVRYGAAFTQKFSSSIAPHITTFLVHGKQVTLGAFGHEEEVISNPLSPRVIQNIIYYKCNTHDEREAVIQQELVIHIGWIISNNPELFSGMLKIRIGWIIHAMEYELQIRGGDKPALDLYQLSPSEVKQLLLDILQPQQNGRCWLNRRQIDGSLNRTPTGFYDRVWQILERTPNGIIVAGKHLPQQPTLSDMTMYEMNFSLLVEDTLGNIDQPQYRQIVVELLMVVSIVLERNPELEFQDKVDLDRLVKEAFNEFQKDQSRLKEIEKQDDMTSFYNTPPLGKRGTCSYLTKAVMNLLLEGEVKPNNDDPCLIS [PHKB] | -0.047 | 50.2 °C | 49.3 °C | -0.191 | -0.245 | 0.284 |
| SLC27A2 | -0.335 | 50 °C | 50.3 °C | -0.133 | 2.25 | 2.44 |
| MFEEKASSPSGKMGGEEKPIGAGEEKQKEGGKKKNKEGSGDGGRAELNPWPEYIYTRLEMYNILKAEHDSILAEKAEKDSKPIKVTLPDGKQVDAESWKTTPYQIACGISQGLADNTVIAKVNNVVWDLDRPLEEDCTLELLKFEDEEAQAVYWHSSAHIMGEAMERVYGGCLCYGPPIENGFYYDMYLEEGGVSSNDFSSLEALCKKIIKEKQAFERLEVKKETLLAMFKYNKFKCRILNEKVNTPTTTVYRCGPLIDLCRGPHVRHTGKIKALKIHKNSSTYWEGKADMETLQRIYGISFPDPKMLKEWEKFQEEAKNRDHRKIGRDQELYFFHELSPGSCFFLPKGAYIYNALIEFIRSEYRKRGFQEVVTPNIFNSRLWMTSGHWQHYSENMFSFEVEKELFALKPMNCPGHCLMFDHRPRSWRELPLRLADFGVLHRNELSGALTGLTRVRRFQQDDAHIFCAMEQIEDEIKGCLDFLRTVYSVFGFSFKLNLSTRPEKFLGDIEVWDQAEKQLENSLNEFGEKWELNSGDGAFYGPKIDIQIKDAIGRYHQCATIQLDFQLPIRFNLTYVSHDGDDKKRPVIVHRAILGSVERMIAILTENYGGKWPFWLSPRQVMVVPVGPTCDEYAQKVRQQFHDAKFMADIDLDPGCTLNKKIRNAQLAQYNFILVVGEKEKISGTVNIRTRDNKVHGERTISETIERLQQLKEFRSKQAEEEF [TARS] | -0.0551 | 51.9 °C | 51.6 °C | -0.144 | 0.00611 | -0.985 |
| MEKILQMAEGIDIGEMPSYDLVLSKPSKGQKRHLSTCDGQNPPKKQAGSKFHARPRFEPVHFVASSSKDERQEDPYGPQTKEVNEQTHFASMPRDIYQDYTQDSFSIQDGNSQYCDSSGFILTKDQPVTANMYFDSGNPAPSTTSQQANSQSTPEPSPSQTFPESVVAEKQYFIEKLTATIWKNLSNPEMTSGSDKINYTYMLTRCIQACKTNPEYIYAPLKEIPPADIPKNKKLLTDGYACEVRCQNIYLTTGYAGSKNGSRDRATELAVKLLQKRIEVRVVRRKFKHTFGEDLVVCQIGMSSYEFPPALKPPEDLVVLGKDASGQPIFNASAKHWTNFVITENANDAIGILNNSASFNKMSIEYKYEMMPNRTWRCRVFLQDHCLAEGYGTKKTSKHAAADEALKILQKTQPTYPSVKSSQCHTGSSPRGSGKKKDIKDLVVYENSSNPVCTLNDTAQFNRMTVEYVYERMTGLRWKCKVILESEVIAEAVGVKKTVKYEAAGEAVKTLKKTQPTVINNLKKGAVEDVISRNEIQGRSAEEAYKQQIKEDNIGNQLLRKMGWTGGGLGKSGEGIREPISVKEQHKREGLGLDVERVNKIAKRDIEQIIRNYARSESHTDLTFSRELTNDERKQIHQIAQKYGLKSKSHGVGHDRYLVVGRKRRKEDLLDQLKQEGQVGHYELVMPQAN [NKRF] | -0.517 | 44.4 °C | 48 °C | 0.226 | 3.45 | 6.93 |
| MATSAPLRSLEEEVTCSICLDYLRDPVTIDCGHVFCRSCTTDVRPISGSRPVCPLCKKPFKKENIRPVWQLASLVENIERLKVDKGRQPGEVTREQQDAKLCERHREKLHYYCEDDGKLLCVMCRESREHRPHTAVLMEKAAQPHREKILNHLSTLRRDRDKIQGFQAKGEADILAALKKLQDQRQYIVAEFEQGHQFLREREEHLLEQLAKLEQELTEGREKFKSRGVGELARLALVISELEGKAQQPAAELMQDTRDFLNRYPRKKFWVGKPIARVVKKKTGEFSDKLLSLQRGLREFQGKLLRDLEYKTVSVTLDPQSASGYLQLSEDWKCVTYTSLYKSAYLHPQQFDCEPGVLGSKGFTWGKVYWEVEVEREGWSEDEEEGDEEEEGEEEEEEEEAGYGDGYDDWETDEDEESLGDEEEEEEEEEEEVLESCMVGVARDSVKRKGDLSLRPEDGVWALRLSSSGIWANTSPEAELFPALRPRRVGIALDYEGGTVTFTNAESQELIYTFTATFTRRLVPFLWLKWPGTRLLLRP [TRIM26] | -1.13 | 51.2 °C | – | -0.225 | 0.882 | 3.9 |

From the supplement of paper PMC5998384
